# Results reported in patent US20160274109A1.
# Molecular target: Rap1B (Rap1B portion of the EPAC2-GFP-RAP1B sensor) (Homo sapiens (Human)) (UniProt P61224)
# Assay: cell-based or functional assay
# Rap1B (Rap1B portion of the EPAC2-GFP-RAP1B sensor) (Homo sapiens (Human)), sequence (P61224 other isoform, or with tags, fused parts or gaps limits assumed): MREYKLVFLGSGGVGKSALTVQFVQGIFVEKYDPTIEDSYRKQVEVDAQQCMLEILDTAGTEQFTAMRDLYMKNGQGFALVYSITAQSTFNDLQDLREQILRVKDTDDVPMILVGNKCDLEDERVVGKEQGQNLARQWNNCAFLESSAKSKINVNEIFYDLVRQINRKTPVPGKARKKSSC
Relative Change in Fluorescence in Response to Isoproternol (EPAC2gfpRAP1B sensor) [%],"change in fluorescence of the tethered Epac2-cpEGFP-Rap1B sensor in response to drug (isoproterenol), HEK 293 cells [%]",Substance
26,,Epac2 (Epac2 portion of the EPAC2-GFP-RAP1B sensor) (from UniProt Q8WZA2 1-1011)
,25,Epac2 (Epac2 portion of the EPAC2-GFP-RAP1B sensor) (from UniProt Q8WZA2 1-1011) (enzyme)
